The target of assay [1] is human α-CGRP K35A (19-37) (human). In words: Biacore 25 C, Fab over peptide on SA chip; KD ratio to parent 19-37. For orientation: SPR reads the build-up and loss of mass on a sensor chip optically.
In assay [2] the target is human α-CGRP S34A (25-37) (human). In words: Biacore 25 C, Fab over peptide on SA chip; KD ratio to parent 25-37.
The target in assay [3] is human α-CGRP V28A (25-37) (human). Described as above.
In assay [4] the target is human α-CGRP V32A (25-37) (human). Described as above.
Assay [5] concerns the target human α-CGRP F27A (25-37) (human). The description is as above.
Assay [6] addresses human α-CGRP P29A (25-37) (human). The assay is described as above.
Assay [7] has as its target human α-CGRP T30A (25-37) (human). The assay is described as above.
In assay [8] the target is human α-CGRP G33A (25-37) (human). The assay is described as above.
Assay [9] deals with human α-CGRP N31A (25-37) (human). The description is as above.

Take anti-CGRP antibody 4901, Fab fragment: the KD (mutant/parent) in assay [1] was found to be 0.3; in [2] it was 0.8; in assay [3], 0.8; in [4], 0.9; in assay [5], 0.8; in assay [6], 0.2. In addition, the KD (mutant/parent) in assay [7] amounted to 0.2; in [8], 1.3; in assay [9] it was 0.3.

(Values after patent US20200331991A1.)
